Reference: IntAct's records for PubMed 19942855

biological target: spp_human HM13 (UniProt Q8TCT9)
Sequence (Q8TCT9 whole entry): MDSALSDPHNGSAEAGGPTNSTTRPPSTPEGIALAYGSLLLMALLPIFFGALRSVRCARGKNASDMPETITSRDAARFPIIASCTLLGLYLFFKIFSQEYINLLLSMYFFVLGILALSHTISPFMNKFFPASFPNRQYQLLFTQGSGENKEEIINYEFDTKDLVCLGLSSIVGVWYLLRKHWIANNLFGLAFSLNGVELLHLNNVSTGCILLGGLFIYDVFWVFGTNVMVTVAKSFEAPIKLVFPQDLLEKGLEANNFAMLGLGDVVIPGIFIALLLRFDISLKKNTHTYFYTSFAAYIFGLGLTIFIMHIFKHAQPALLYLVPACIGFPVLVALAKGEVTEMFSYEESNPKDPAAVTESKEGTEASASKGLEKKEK

Protein disulfide-isomerase (Homo sapiens), P07237 C56S, sequence (P07237 whole entry C56S): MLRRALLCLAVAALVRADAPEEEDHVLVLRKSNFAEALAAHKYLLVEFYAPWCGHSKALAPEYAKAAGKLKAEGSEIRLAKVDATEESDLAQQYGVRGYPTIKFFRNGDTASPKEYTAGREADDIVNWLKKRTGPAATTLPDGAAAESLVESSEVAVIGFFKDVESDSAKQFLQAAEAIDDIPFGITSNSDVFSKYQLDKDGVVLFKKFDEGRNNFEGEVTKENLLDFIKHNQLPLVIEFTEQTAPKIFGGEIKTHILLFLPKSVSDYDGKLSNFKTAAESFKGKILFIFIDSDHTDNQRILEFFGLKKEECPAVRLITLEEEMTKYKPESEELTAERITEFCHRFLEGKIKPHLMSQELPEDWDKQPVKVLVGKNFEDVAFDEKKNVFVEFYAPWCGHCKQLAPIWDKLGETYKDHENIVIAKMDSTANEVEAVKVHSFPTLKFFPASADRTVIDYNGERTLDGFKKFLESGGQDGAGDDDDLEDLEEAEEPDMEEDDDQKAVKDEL
Protein disulfide-isomerase (Homo sapiens), P07237 C397S, sequence (P07237 whole entry C397S): as the sequence (P07237 whole entry C56S) above, with S56C, C397S counted along it
Protein disulfide-isomerase (Homo sapiens), P07237 C400S, sequence (P07237 whole entry C400S): as the sequence (P07237 whole entry C56S) above, with S56C, C400S counted along it
Protein disulfide-isomerase (Homo sapiens), P07237 I289A, sequence (P07237 whole entry I289A): as the sequence (P07237 whole entry C56S) above, with S56C, I289A counted along it
Protein disulfide-isomerase (Homo sapiens), P07237 F275W, sequence (P07237 whole entry F275W): as the sequence (P07237 whole entry C56S) above, with S56C, F275W counted along it
Protein disulfide-isomerase (Homo sapiens), P07237 C53S, sequence (P07237 whole entry C53S): as the sequence (P07237 whole entry C56S) above, with C53S, S56C counted along it

| Substance | effect of a mutation on the interaction |
| --- | --- |
| Protein disulfide-isomerase (Homo sapiens), P07237 C397S | decreasing interaction |
| Protein disulfide-isomerase (Homo sapiens), P07237 C56S | decreasing interaction |
| Protein disulfide-isomerase (Homo sapiens), P07237 C400S | decreasing interaction |
| Protein disulfide-isomerase (Homo sapiens), P07237 C53S | decreasing interaction |

biological target: spp_human HM13 (UniProt Q8TCT9); remark: another data set of the same source

| Substance | effect of a mutation on the interaction |
| --- | --- |
| Protein disulfide-isomerase (Homo sapiens), P07237 I289A | increasing interaction |
| Protein disulfide-isomerase (Homo sapiens), P07237 F275W | increasing interaction |
